Some targets named below: chymotrypsin; bovine trypsin (bovine, UniProt P00760 24-246); Elastase; MMP3 (human, UniProt P08254 100-477, limits assumed); MMP9 (human, UniProt P14780 107-707, limits assumed); MMP8 (human, UniProt P22894 101-467, limits assumed); MMP13 (human, UniProt P45452 104-471, limits assumed); MMP12 (human, UniProt P39900 106-470, limits assumed).
Assay in all cases: cell-based or functional assay
A further experiment concerns the target T1, ADAMTS5 (human, UniProt Q9UNA0 262-622, limits assumed).
T1 sequence (looked up): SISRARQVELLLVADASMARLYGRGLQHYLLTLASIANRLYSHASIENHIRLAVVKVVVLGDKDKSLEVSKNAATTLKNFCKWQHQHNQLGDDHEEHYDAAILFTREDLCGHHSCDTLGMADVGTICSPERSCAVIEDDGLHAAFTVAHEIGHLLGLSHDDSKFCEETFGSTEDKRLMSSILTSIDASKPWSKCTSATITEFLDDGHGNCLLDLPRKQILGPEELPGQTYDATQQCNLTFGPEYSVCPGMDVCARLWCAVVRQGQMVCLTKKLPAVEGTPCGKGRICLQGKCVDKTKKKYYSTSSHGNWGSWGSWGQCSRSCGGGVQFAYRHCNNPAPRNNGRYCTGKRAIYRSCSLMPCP

In another experiment the target is T2, MMP1 (human, UniProt P03956 100-469, limits assumed).
T2 sequence (looked up): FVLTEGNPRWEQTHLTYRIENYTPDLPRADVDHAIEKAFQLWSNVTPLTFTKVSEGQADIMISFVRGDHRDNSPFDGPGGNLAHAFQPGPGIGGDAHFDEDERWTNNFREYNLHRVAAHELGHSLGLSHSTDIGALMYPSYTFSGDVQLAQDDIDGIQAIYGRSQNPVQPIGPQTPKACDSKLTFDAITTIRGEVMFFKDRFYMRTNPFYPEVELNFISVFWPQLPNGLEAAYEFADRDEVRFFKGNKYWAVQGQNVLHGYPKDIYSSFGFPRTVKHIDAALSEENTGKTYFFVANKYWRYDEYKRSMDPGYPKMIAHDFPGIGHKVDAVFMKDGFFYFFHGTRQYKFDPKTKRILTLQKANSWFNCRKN

Another experiment deals with T3, ADAMTS4 (human, UniProt O75173 213-685, limits assumed).
T3 sequence (looked up): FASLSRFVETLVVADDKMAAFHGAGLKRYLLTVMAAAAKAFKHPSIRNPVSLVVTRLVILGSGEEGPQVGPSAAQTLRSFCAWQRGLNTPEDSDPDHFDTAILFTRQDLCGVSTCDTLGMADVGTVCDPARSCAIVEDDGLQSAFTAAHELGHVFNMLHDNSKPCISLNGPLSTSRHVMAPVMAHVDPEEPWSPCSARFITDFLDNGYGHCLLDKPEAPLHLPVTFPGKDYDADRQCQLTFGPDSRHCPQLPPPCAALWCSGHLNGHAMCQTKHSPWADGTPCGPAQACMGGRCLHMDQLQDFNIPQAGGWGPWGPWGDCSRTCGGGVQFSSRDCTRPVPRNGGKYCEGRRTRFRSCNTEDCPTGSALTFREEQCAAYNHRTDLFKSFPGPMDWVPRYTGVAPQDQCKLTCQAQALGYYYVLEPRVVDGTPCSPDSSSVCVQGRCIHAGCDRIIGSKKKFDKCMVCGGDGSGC

Another experiment concerns the target T4, MMP2 (human, UniProt P08253 110-660, limits assumed).
T4 sequence (looked up): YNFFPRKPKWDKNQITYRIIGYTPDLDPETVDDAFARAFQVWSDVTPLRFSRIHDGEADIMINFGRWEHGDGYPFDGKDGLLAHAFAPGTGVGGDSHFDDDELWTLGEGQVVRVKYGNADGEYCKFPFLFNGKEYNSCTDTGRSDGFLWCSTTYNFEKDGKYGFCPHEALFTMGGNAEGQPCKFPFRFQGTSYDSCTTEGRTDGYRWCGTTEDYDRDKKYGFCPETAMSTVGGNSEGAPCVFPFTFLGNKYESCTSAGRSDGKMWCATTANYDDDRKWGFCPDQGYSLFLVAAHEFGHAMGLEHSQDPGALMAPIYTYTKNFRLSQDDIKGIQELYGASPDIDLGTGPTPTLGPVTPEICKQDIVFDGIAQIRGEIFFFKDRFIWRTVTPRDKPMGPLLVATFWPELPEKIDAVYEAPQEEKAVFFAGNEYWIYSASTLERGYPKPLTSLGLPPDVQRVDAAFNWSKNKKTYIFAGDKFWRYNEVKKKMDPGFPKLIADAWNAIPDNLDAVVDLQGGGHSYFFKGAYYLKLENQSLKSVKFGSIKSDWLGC

A further experiment concerns the target T5, Cathepsin G (UniProt P08311 21-244).
T5 sequence (looked up): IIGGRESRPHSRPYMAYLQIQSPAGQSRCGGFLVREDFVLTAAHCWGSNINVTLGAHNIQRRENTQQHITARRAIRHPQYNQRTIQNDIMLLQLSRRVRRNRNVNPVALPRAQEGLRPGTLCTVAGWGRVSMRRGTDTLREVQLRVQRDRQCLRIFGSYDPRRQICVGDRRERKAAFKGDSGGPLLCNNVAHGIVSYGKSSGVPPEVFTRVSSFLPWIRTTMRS

We go through two molecules from patent US20230250154A1 (CYTONICS, published 2023).

Sequence of MMP9 (P14780 107-707 limits assumed): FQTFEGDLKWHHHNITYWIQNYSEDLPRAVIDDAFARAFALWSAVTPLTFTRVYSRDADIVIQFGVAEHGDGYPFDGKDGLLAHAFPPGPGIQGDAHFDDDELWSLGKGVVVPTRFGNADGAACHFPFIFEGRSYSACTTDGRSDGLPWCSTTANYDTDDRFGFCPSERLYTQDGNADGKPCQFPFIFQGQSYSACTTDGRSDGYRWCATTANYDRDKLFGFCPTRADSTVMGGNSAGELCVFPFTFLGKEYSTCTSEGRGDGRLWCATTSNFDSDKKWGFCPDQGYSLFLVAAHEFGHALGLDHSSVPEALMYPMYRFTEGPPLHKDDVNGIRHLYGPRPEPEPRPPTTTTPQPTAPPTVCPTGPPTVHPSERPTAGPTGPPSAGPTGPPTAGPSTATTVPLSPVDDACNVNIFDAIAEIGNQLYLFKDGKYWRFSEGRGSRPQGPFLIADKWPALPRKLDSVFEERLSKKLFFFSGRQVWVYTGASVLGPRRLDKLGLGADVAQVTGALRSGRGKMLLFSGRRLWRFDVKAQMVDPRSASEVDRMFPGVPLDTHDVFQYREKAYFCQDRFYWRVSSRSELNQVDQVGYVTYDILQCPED
Sequence of MMP8 (P22894 101-467 limits assumed): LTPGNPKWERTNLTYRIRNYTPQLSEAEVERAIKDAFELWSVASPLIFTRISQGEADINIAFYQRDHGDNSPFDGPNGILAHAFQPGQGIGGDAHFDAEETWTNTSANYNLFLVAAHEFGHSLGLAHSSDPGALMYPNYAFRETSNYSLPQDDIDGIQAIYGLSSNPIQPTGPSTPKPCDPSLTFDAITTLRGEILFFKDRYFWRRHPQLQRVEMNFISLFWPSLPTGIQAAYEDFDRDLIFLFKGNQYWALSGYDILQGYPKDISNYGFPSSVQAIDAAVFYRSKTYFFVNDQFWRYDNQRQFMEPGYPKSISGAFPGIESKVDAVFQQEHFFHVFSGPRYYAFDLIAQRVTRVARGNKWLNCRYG
Sequence of MMP3 (P08254 100-477 limits assumed): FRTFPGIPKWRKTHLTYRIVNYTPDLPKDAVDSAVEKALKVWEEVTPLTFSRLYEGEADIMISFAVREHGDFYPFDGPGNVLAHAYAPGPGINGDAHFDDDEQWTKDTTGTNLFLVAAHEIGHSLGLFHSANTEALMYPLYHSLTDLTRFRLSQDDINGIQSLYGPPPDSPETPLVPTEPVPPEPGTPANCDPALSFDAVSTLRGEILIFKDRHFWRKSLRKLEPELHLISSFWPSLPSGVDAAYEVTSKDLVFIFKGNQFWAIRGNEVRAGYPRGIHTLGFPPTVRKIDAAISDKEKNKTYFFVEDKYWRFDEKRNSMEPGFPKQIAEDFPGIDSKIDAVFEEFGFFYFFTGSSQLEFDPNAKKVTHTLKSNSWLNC
Sequence of bovine trypsin (P00760 24-246): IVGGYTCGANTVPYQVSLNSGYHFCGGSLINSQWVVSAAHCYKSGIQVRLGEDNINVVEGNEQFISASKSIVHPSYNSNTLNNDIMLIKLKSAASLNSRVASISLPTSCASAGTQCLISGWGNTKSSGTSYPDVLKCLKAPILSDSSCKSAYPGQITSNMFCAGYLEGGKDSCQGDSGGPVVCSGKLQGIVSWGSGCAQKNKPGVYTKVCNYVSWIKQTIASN
Sequence of MMP12 (P39900 106-470 limits assumed): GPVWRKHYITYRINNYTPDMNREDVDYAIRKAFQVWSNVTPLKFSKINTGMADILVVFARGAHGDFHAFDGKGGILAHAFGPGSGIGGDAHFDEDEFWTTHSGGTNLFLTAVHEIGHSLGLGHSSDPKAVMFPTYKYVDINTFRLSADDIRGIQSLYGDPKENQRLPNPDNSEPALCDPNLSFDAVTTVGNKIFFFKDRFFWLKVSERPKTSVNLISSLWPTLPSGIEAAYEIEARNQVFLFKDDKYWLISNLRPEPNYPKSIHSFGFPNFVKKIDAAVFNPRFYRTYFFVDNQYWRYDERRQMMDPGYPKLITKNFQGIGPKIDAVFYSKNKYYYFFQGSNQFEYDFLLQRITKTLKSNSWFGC

B1: Variant A2M, bait region SEQ ID NO 90 (other)
chain: SVSGKPQYMVLVPSLLHTETTEKGCVLLSYLNETVTVSASLESVRGNRSLFTDLEAENDVLHCVAFAVPKSSSNEEVMFLTVQVKGPTQEFKKRTTVMVKNEDSLVFVQTDKSIYKPGQTVKFRVVSMDENFHPLNELIPLVYIQDPKGNRIAQWQSFQLEGGLKQFSFPLSSEPFQGSYKVVVQKKSGGRTEHPFTVEEFVLPKFEVQVTVPKIITILEEEMNVSVCGLYTYGKPVPGHVTVSICRKYSDASDCHGEDSQAFCEKFSGQLNSHGCFYQQVKTKVFQLKRKEYEMKLHTEAQIQEEGTVVELTGRQSSEITRTITKLSFVKVDSHFRQGIPFFGQVRLVDGKGVPIPNKVIFIRGNEANYYSNATTDEHGLVQFSINTTNVMGTSLTVRVNYKDRSPCYGYQWVSEEHEEAHHTAYLVFSPSKSFVHLEPMSHELPCGHTQTVQAHYILNGGTLLGLKKLSFYYLIMAKGGIVRTGTHGLLVKQEDMKGHFSISIPVKSDIAPVARLLIYAVLPTGDVIGDSAKYDVENCLANKVDLSFSPSQSLPASHAHLRVTAAPQSVCALRAVDQSVLLMKPDAELSASSVYNLLPEKDLTGFPGPLNDQDDEDCINRHNVYINGITYTPVSSTNEKDMYSFLEDMGLKAFTNSKIRKPKMCPQLEQYEMHGPEGLRVGSELEGRGSFYESDVMGRGHARLVHVEEPHTKLLRKYFPETWIWDLVVVNSAGVAEVGVTVPDTITEWKAGAFCLSEDAGLGISSTASLRAFQPFFVELTMPYSVIRGEAFTLKATVLNYLPKCIRVSVQLEASPAFLAVPVEKEQAPHCICANGRQTVSWAVTPKSLGNVNFTVSAEALESQELCGTEVPSVPEHGRKDTVIKPLLVEPEGLEKETTFNSLLCPSGGEVSEELSLKLPPNVVEESARASVSVLGDILGSAMQNTQNLLQMPYGCGEQNMVLFAPNIYVLDYLNETQQLTPEIKSKAIGYLNTGYQRQLNYKHYDGSYSTFGERYGRNQGNTWLTAFVLKTFAQARAYIFIDEAHITQALIWLSQRQKDNGCFRSSGSLLNNAIKGGVEDEVTLSAYITIALLEIPLTVTHPVVRNALFCLESAWKTAQEGDHGSHVYTKALLAYAFALAGNQDKRKEVLKSLNEEAVKKDNSVHWERPQKPKAPVGHFYEPQAPSAEVEMTSYVLLAYLTAQPAPTSEDLTSATNIVKWITKQQNAQGGFSSTQDTVVALHALSKYGAATFTRTGKAAQVTIQSSGTFSSKFQVDNNNRLLLQQVSLPELPGEYSMKVTGEGCVYLQTSLKYNILPEKEEFPFALGVQTLPQTCDEPKAHTSFQISLSVSYTGSRSASNMAIVDVKMVSGFIPLKPTVKMLERSNHVSRTEVSSNHVLIYLDKVSNQTLSLFFTVLQDVPVRDLKPAIVKVYDYYETDEFAIAEYNAPCSKDLGNADYKDDDDKGASHHHHHH
For B1, the “Protease Inhibition (% of WT)” value in the experiment with chymotrypsin was 80 % of WT; with bovine trypsin, 100 % of WT; with Elastase it was 550 % of WT; with ADAMTS5, 350 % of WT; with MMP1, 50 % of WT; with MMP3, 110 % of WT. Moreover, the “Protease Inhibition (% of WT)” value with ADAMTS4 is 70 % of WT; with MMP9, 100 % of WT; with MMP8, 110 % of WT; with MMP13, 700 % of WT; with MMP2, 110 % of WT; with MMP12, 100 % of WT.

B2: Variant A2M, bait region SEQ ID NO 126 (other)
chain: SVSGKPQYMVLVPSLLHTETTEKGCVLLSYLNETVTVSASLESVRGNRSLFTDLEAENDVLHCVAFAVPKSSSNEEVMFLTVQVKGPTQEFKKRTTVMVKNEDSLVFVQTDKSIYKPGQTVKFRVVSMDENFHPLNELIPLVYIQDPKGNRIAQWQSFQLEGGLKQFSFPLSSEPFQGSYKVVVQKKSGGRTEHPFTVEEFVLPKFEVQVTVPKIITILEEEMNVSVCGLYTYGKPVPGHVTVSICRKYSDASDCHGEDSQAFCEKFSGQLNSHGCFYQQVKTKVFQLKRKEYEMKLHTEAQIQEEGTVVELTGRQSSEITRTITKLSFVKVDSHFRQGIPFFGQVRLVDGKGVPIPNKVIFIRGNEANYYSNATTDEHGLVQFSINTTNVMGTSLTVRVNYKDRSPCYGYQWVSEEHEEAHHTAYLVFSPSKSFVHLEPMSHELPCGHTQTVQAHYILNGGTLLGLKKLSFYYLIMAKGGIVRTGTHGLLVKQEDMKGHFSISIPVKSDIAPVARLLIYAVLPTGDVIGDSAKYDVENCLANKVDLSFSPSQSLPASHAHLRVTAAPQSVCALRAVDQSVLLMKPDAELSASSVYNLLPEKDLTGFPGPLNDQDDEDCINRHNVYINGITYTPVSSTNEKDMYSFLEDMGLKAFTNSKIRKPKMCPQLEQYEMHGPEGEGEGEGIPENFFGVSEDLVVQISELEGRGSVEEPHTKLRKYFPETWIWDLVVVNSAGVAEVGVTVPDTITEWKAGAFCLSEDAGLGISSTASLRAFQPFFVELTMPYSVIRGEAFTLKATVLNYLPKCIRVSVQLEASPAFLAVPVEKEQAPHCICANGRQTVSWAVTPKSLGNVNFTVSAEALESQELCGTEVPSVPEHGRKDTVIKPLLVEPEGLEKETTFNSLLCPSGGEVSEELSLKLPPNVVEESARASVSVLGDILGSAMQNTQNLLQMPYGCGEQNMVLFAPNIYVLDYLNETQQLTPEIKSKAIGYLNTGYQRQLNYKHYDGSYSTFGERYGRNQGNTWLTAFVLKTFAQARAYIFIDEAHITQALIWLSQRQKDNGCFRSSGSLLNNAIKGGVEDEVTLSAYITIALLEIPLTVTHPVVRNALFCLESAWKTAQEGDHGSHVYTKALLAYAFALAGNQDKRKEVLKSLNEEAVKKDNSVHWERPQKPKAPVGHFYEPQAPSAEVEMTSYVLLAYLTAQPAPTSEDLTSATNIVKWITKQQNAQGGFSSTQDTVVALHALSKYGAATFTRTGKAAQVTIQSSGTFSSKFQVDNNNRLLLQQVSLPELPGEYSMKVTGEGCVYLQTSLKYNILPEKEEFPFALGVQTLPQTCDEPKAHTSFQISLSVSYTGSRSASNMAIVDVKMVSGFIPLKPTVKMLERSNHVSRTEVSSNHVLIYLDKVSNQTLSLFFTVLQDVPVRDLKPAIVKVYDYYETDEFAIAEYNAPCSKDLGNADYKDDDDKGASHHHHHH
With B2, the “Protease Inhibition (% of WT)” value in the experiment with chymotrypsin was 50 % of WT; in the experiment with bovine trypsin, 86 % of WT; with Elastase, 105 % of WT; in the experiment with Cathepsin G, 311 % of WT; in the experiment with ADAMTS5, 480 % of WT; in the experiment with MMP1, 379 % of WT. Also, the “Protease Inhibition (% of WT)” value was 130 % of WT with MMP3; 115 % of WT in the experiment with ADAMTS4; 500 % of WT in the experiment with MMP9; 163 % of WT with MMP8; 117 % of WT with MMP13; 61 % of WT in the experiment with MMP2. Moreover, the “Protease Inhibition (% of WT)” value with MMP12 was 132 % of WT.
